Data as given in paper PMC2799420.

Target: Lyngbya majuscula JHB protein 7968 (Lyngbya majuscula JHB)
Experiment: PAGE analysis; kind of PAGE (native or SDS) and conditions not told; mentioned only in the discussion

“Lyngbya majuscula JHB protein 7968 (natural protein)” was tested, and the stoichiometry N was 2.
